Test results reported in patent US20140093514A1 (UNIVERSITY OF ZURICH, published 2014).
Changes are numbered by the printed parent chain. Like-named read-outs stand apart in the source and are kept apart here.

T1: recombinant MAGEA1 (UniProt P43355 1-309, limits assumed)
T1 construct: also called CT1.1
T1 sequence (looked up): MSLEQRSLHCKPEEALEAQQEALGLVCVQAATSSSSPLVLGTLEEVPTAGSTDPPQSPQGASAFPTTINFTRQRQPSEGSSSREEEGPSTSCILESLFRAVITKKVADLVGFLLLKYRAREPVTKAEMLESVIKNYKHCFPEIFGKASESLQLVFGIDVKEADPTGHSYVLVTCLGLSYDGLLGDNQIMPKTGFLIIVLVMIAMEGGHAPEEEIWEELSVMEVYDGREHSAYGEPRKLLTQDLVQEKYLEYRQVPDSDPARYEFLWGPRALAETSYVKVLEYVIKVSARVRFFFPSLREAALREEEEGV

T2: MAGEA3 peptide No 5
T2 construct: member of the group m18; also called 20mer peptide, amino acids 41-60 of MAGEA3
T2 peptide: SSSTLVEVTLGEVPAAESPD

T3: recombinant MAGEA4 (UniProt P43358 1-317, limits assumed)
T3 construct: also called CT1.4
T3 sequence (looked up): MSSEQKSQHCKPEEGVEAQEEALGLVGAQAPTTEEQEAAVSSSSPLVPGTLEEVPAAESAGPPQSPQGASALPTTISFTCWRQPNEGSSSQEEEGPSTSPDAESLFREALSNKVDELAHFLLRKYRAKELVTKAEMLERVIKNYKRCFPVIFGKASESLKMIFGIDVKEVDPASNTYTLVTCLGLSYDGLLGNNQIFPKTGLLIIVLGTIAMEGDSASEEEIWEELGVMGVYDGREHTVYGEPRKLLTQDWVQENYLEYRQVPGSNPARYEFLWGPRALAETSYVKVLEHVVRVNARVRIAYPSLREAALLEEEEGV

T4: MAGEA3 peptide No 10
T4 construct: member of the group m18; also called 20mer peptide, amino acids 91-110 of MAGEA3
T4 peptide: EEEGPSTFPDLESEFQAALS

T5: MAGEA3 peptide No 22
T5 construct: member of the group m18; also called 20mer peptide, amino acids 211-230 of MAGEA3
T5 peptide: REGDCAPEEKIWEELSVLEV

B1: 9A5 (antibody, V domains shown)
VH: EVQLVASGGVMVKPGGSLRLSCAASGFSFKNAWMTWVRQAPGMGLEWVGRITSKTDGETTDYAAPVKGRFTISRDDSKNILYLQMNSLKTEDTAVYYCATRTTVCYVCWGQGTLVTVSS
VL: DIVLTQSPDSLAVSQGERATINCKSSQSLLYSSNNKNYLAWFQQKPGQPPKLLIYWASTRESGVPDRFSGSGSGTDFTLTISSLQAEDVAVYYCQQYYTIGWTFGPGTKVEIK
B2: 31H10 (antibody, V domains shown)
VH: QVQLVESGGGVVQPGGSLRLSCAASDFTFSDHGMHWVRQAPGKGLQWVSFISHHGTNKYYIDSVKGRFIISRDNSKNTLYLQMNSLRTEDTAVYYCATVIGYFFGYGFDVWGQGTTVIVSS
VL: EIVMTQSPATLSVSPGEEINLACRASHSISGNLAWYQQKPGQGPRLLIYSASTRATGISARFSGSGSGTEFTLTISSLESEDFAVYFCQQYNNWPLTFGGGTKVEIK
B3: 4D6 (antibody, V domains shown)
VH: QVQLVESGGGVVQPGRSLRLSCAASGFSFSDYAMHWVRQAPGKGLEWVAVISYDGTKKYYADSVEGRLTISRDNSQNTLSLQMSGLRVEDKGVYYCARDGCDSARCSYGMDVWGQGTTVTVSS
VL: EIVMTQSPSSLSASVGDRVTITCRASQDIRNDLGWYQQKPGKAPKLLIYGASTLQSGVPSRFSGSGSGTDFTLTISSLQPEDFATYYCLQDYSYRWTFGQGTKVEIK
B4: 26C9 (antibody, V domains shown)
VH: QVQLVQSGAAVKKPGSSVKVSCTASGGTFGTSGITWVRQAPGQGLEWVGRVTPILGITRYAQRFQGRVTITADTSTSTAYMELSRLRSDDTALYYCARAPEMTINSDWGQGTLVTVSS
VL: QSALTQPASVSGSPGQSITISCTGTRSDVGGHNYVSWYQQDPDKAPKLIIYEVSKRPSGVSNRFSGSKSGNTASLTISGLQAEDEADYYCSSYTGTTILEVFGTGTTVTVL
B5: 2G4 (antibody, V domains shown)
VH: B4 VH with V51I, A61G, T74K
VL: B4 VL with Q40H, V60I, T96S
B6: 94G11 (antibody, V domains shown)
VH: QVLLQESGPGLVKPSQILSLTCTVSGGSNRSVSYYWSWIRQPAGQGLEWIGRIYPSGSTHYNPSLKSRVTISVDTSKNQFSLKLSSLTAADTAMYFCAWGGYDSLGGRRLRHFDYWGQGALVTVSS
VL: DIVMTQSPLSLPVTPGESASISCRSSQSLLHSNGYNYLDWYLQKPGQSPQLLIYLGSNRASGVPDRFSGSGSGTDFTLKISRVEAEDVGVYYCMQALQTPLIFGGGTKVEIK
B7: 20C10 (antibody, V domains shown)
VH: QLQLQESGPGLVKPSETLSLTCTVSGDSISASTDSWGWIRQSPGKGLEWIGVTSYSGRPYYNPSLKRRVTISVDTSKNHFSLKLTSVTAADRALYYCARRPSLIWAFDIWGQGTMVTVSS
VL: QSALTQPASVSGSPEQSITISCTGTSSAVGNYNLVSWYQHHPGKAPLLIIYDVNERPSGVSHRFSGSRSGNTASLTISGLLAEDEADYFCCSYGGTSSLHYVFGTGTRVTVL
B8: 54B4 (antibody, V domains shown)
VH: EVQLVESGGGLVPPGGSLRLSCAASGFTFTTYGLTWVRQAPGKGLEWISYITSSGTIIHYADSVKGRFTISRDNAKNSLYLQMNSLRAEDTAVYYCARGRRGTVVRGVMLDQWGQGTLVTVSS
VL: DIQMTQSPSTLSASIGDRVTITCRASQSISRWLAWYQQKPGQAPKLLIYEASSLESGVPSRFSGSGSGTEFTLTISSLQPDDFAIYYCQQYSSYSLTFGGGTKVEIK
B9: 43B10 (antibody, V domains shown)
VH: B8 VH with T35N, Q39L
VL: B8 VL with T22A, I85T, T97A

Experiments:
[1] = molecular target: T6, recombinant MAGEA10 (UniProt P43363 1-369, limits assumed); test: ELISA on coated recombinant MAGEA proteins, serial dilutions of antibody (concentrations not printed on the sheet)
T6 construct: also called CT1.10
Experimental: (§1) Recombinantly expressed MAGEA3, MAGEA1, MAGEA4, MAGEA10 were coated on ELISA plates and binding of MAGEA3 antibodies 21B4, 94G11, 2G4, 9A5 and 54B4 to these proteins was tested. The results are depicted in FIG. 3B).

[2] = molecular target: T1, recombinant MAGEA1; test: as above
Experimental: as §1

[3] = molecular target: T2, MAGEA3 peptide No 5; test: ELISA on plates coated with overlapping 20mer MAGEA3 peptides; antibody 9A5 at '4 mg/ml' as printed in paragraph 376; HRP goat anti-human IgG Fc-gamma
Experimental: (§2) 20mer peptides spanning the entire MAGEA3 protein with 10 aa overlaps shared by each adjacent peptide (Peptides&Elephants, Nuthetal, Germany) were used to coat Maxisorp ELISA plates (Nunc, Rochester, N.Y.). As control a 20mer peptide representing amino acids 40-21 from the NY-ESO-1 protein was used (rev). The numbering of amino acids of MAGEA3 is based on SEQ ID No.: 101.
(§3) Human recombinant antibody was used at a concentration of 1 μg/ml with the exception of antibody 9A5 which was used at […]. Bound human antibody was detected using horseradish peroxidase-conjugated goat anti-human IgG Fc-gamma specific antibodies (Jackson ImmunoResearch, Europe Ltd., Cambridgeshire, UK).

[4] = molecular target: T3, recombinant MAGEA4; test: Western blot; recombinant MAGEA4 in lane B, human antibody as probe
Experimental: Membranes were incubated with human antibodies 21B4, 54B4, 94G11, 9A5, 31H10, 43B10, 2G4 or 20C10. Binding of human antibodies to proteins on the membrane was evaluated. The results are depicted in FIG. 3A).

[5] = molecular target: T7, recombinant MAGEA3 protein (human, UniProt P43357 1-314); test: ELISA, recombinant MAGEA3 coated to plastic, serial dilutions of antibody, OD 450 nm
T7 construct: In Experiment 4C MAGEA3 was also expressed in transiently transfected HEK293T cells (fixed and permeabilized); also called His-tagged MAGEA3; CT1.3
Experimental: FIG. 4 EC50 determination of recombinant human monoclonal antibodies to MAGEA3. MAGEA3-ELISA was carried out using recombinant MAGEA3 coated to plastic and serial dilutions of the human monoclonal antibodies 21B4, 54B4, 94G11, 9A5, 31H10, 43B10, 2G4, 20C10, 26C9 and 4D6 (A-J). EC50 values are indicated in each figure.
(§4) The EC₅₀, the concentration at which half-maximal binding of the antibody to its antigen is observed was determined in MAGEA3 ELISA using serial dilutions of the human monoclonal antibodies 21B4, 54B4, 94G11, 9A5, 31H10, 43B10, 2G4, 20C10, 26C9 and 4D6. EC50 values were determined mathematically by derivation of the best-fit line using GraphPad software.

[6] = molecular target: T4, MAGEA3 peptide No 10; test: ELISA on plates coated with overlapping 20mer MAGEA3 peptides; antibody at 1 µg/ml; HRP goat anti-human IgG Fc-gamma
Experimental: as §2, §3

[7] = molecular target: T8, MAGEA6 (UniProt P43360 1-314, limits assumed); test: flow cytometry on fixed, permeabilized HEK293T cells transiently transfected with MAGEA6; PE-labeled anti-human antibody
T8 construct: whole, on cells; Intracellular antigen: the transfected cells were fixed and permeabilized before staining; also called CT1.6
Experimental: HEK293T cells transiently transfected with MAGEA3 or MAGE A6 were fixed and permeabilized and incubated with human-derived antibodies. Binding of human-derived antibodies to the cells was detected by flow cytometry using PE-labeled anti-human antibodies. […] Filled histograms show binding of 21B4, 31H10, 94G11 and 54B4 to transiently transfected HEK 293 cells. Only a proportion of the cells was transfected resulting in a population expressing the transgene and in a population not expressing the transgene. […] The results are depicted in FIG. 3C).

[8] = molecular target: T7, recombinant MAGEA3 protein; test: ELISA, recombinant MAGEA3 coated to plastic, serial dilutions of antibody, OD 450 nm; remark: listed apart in the source
Experimental: His-tagged MAGEA3 expressed in bacteria was column-purified and used to coat 96 well microplates (Costar, USA). Plates were washed with PBS-T and blocked 1 h at room temperature with PBS containing 2% BSA (Sigma, Buchs, Switzerland). Patient sera, B cell conditioned medium, or recombinant antibody preparations were incubated for 2 h at room temperature. Binding of human IgG to MAGEA3 was determined using a horseradish peroxidase conjugated goat anti human Fc-gamma-specific antibody (Jackson ImmunoResearch, Europe Ltd., Cambridgeshire, UK) followed by measurement of the HRP activity using a TMB substrate solution (TMB, Sigma, Buchs, Switzerland).
as §4

[9] = molecular target: T5, MAGEA3 peptide No 22; test: ELISA on plates coated with overlapping 20mer MAGEA3 peptides; antibody at 1 µg/ml; HRP goat anti-human IgG Fc-gamma
Experimental: as §2, §3

T6 sequence (P43363 whole entry): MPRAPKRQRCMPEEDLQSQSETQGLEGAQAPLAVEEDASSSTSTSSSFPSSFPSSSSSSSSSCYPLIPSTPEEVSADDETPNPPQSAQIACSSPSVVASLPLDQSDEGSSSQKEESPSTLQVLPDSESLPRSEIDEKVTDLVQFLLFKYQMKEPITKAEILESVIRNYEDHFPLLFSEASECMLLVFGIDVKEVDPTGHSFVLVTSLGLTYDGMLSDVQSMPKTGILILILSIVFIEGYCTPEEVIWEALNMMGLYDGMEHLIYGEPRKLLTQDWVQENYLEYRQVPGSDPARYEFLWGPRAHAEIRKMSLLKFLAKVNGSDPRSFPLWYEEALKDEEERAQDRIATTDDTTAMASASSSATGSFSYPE
T7 sequence (P43357 whole entry): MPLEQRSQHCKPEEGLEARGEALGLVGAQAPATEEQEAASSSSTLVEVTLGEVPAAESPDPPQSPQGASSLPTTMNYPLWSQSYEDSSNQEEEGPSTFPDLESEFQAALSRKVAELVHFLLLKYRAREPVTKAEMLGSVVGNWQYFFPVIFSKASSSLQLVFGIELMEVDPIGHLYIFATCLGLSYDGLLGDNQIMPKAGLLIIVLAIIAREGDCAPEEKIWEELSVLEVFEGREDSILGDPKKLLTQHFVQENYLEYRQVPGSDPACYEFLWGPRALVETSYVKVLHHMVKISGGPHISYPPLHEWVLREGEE
T8 sequence (P43360 whole entry): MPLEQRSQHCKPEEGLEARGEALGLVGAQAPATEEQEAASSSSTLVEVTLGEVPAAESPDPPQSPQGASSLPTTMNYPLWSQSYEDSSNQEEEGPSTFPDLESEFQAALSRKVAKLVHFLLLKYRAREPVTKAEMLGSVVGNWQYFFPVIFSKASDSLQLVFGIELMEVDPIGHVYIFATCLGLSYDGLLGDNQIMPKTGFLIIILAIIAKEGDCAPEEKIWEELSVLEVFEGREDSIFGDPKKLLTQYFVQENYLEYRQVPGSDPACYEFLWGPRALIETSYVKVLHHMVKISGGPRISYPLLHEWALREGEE

| Binder | binding result [1] | binding result [2] | binding result [4] | EC50 [5] [nM] | binding result [7] | EC50 [8] [nM] | other results |
| --- | --- | --- | --- | --- | --- | --- | --- |
| B1 | no binding | no binding | no binding | 0.259 | – | – | binding result [3]: binds |
| B2 | – | – | no binding | 0.0192 | binds | – | binding result [6]: binds |
| B3 | – | – | – | – | – | – | binding result [8]: binds |
| B4 | – | – | – | 0.523 | – | – | – |
| B5 | no binding | no binding | no binding | 7.79 | – | – | – |
| B6 | no binding | no binding | no binding | – | binds | 0.129 | – |
| B7 | – | – | – | 37.3 | – | – | – |
| B8 | – | – | no binding | – | binds | 0.029 | binding result [9]: binds |
| B9 | – | – | – | – | – | 0.109 | binding result [9]: binds |
